Source: US7662583B2, “Bioreactor containing cells expressing glycosyltransferase nucleic acids isolatable from Arabidopsis” (The University of York, priority 2003, dated 2010)

B1: UGT71C1: Arabidopsis recombinant glycosyltransferase (protein, UniProt O82381 1-481, looked up)
Flavonol …: MGKQEDAELVIIPFPFSGHILATIELAKRLISQDNPRIHTITILYWGLPFIPQADTIAFLRSLVKNEPRIRLVTLPEVQDPPPMELFVEFAESYILEYVKKMVPIIREALSTLLSSRDESGSVRVAGLVLDFFCVPMIDVGNEFNLPSYIFLTCSAGFLGMMKYLPERHREIKSEFNRSFNEELNLIPGYVNSVPTKVLPSGLFMKETYEPWVELAERFPEAKGILVNSYTALEPNGFKYFDRCPDNYPTIYPIGPILCSNDRPNLDSSERDRIITWLDDQPESSVVFLCFGSLKNLSATQINEIAQALEIVDCKFIWSFRTNPKEYASPYEALPHGFMDRVMDQGIVCGWAPQVEILAHKAVGGFVSHCGWNSILESLGFGVPIATWPMYAEQQLNAFTMVKELGLALEMRLDYVSEDGDIVKADEIAGTVRSLMDGVDVPKSKVKEIAEAGKEAVDGGSSFLAVKRFIGDLIDGVSISK
B2: UGT73B5: Arabidopsis recombinant glycosyltransferase (protein, UniProt Q9ZQG4 1-484, looked up)
UDP-glycosyltransferase 73B5: MNREVSERIHILFFPFMAQGHMIPILDMAKLFSRRGAKSTLLTTPINAKIFEKPIEAFKNQNPDLEIGIKIFNFPCVELGLPEGCENADFINSYQKSDSGDLFLKFLFSTKYMKQQLESFIETTKPSALVADMFFPWATESAEKLGVPRLVFHGTSFFSLCCSYNMRIHKPHKKVATSSTPFVIPGLPGDIVITEDQANVAKEETPMGKFMKEVRESETNSFGVLVNSFYELESAYADFYRSFVAKRAWHIGPLSLSNRELGEKARRGKKANIDEQECLKWLDSKTPGSVVYLSFGSGTNFTNDQLLEIAFGLEGSGQSFIWVVRKNENQGDNEEWLPEGFKERTTGKGLIIPGWAPQVLILDHKAIGGFVTHCGWNSAIEGIAAGLPMVTWPMGAEQFYNEKLLTKVLRIGVNVGATELVKKGKLISRAQVEKAVREVIGGEKAEERRLWAKKLGEMAKAAVEEGGSSYNDVNKFMEELNGRK
B3: UGT88A1: Arabidopsis recombinant glycosyltransferase, FIG. 4 (protein, listed as Arabidopsis thaliana)
chain: MGEEAIVLYPAPPIGHLVSMVELGKTILSKNPSLSIHIILVPPPYQPESTATYISSVSSSFPSITFHHLPAVTPYSSSSTSRHHHESLLLEILCFSNPSVHRTLFSLSRNFNVRAMIIDFFCTAVLDITADFTFPVYFFYTSGAACLAFSFYLPTIDETTPGKNLKDIPTVHIPGVPPMKGSDMPKAVLERDDEVYDVFIMFGKQLSKSSGIIINTFDALENRAIKAITEELCFRNIYPIGPLIVNGRIEDRNDNKAVSCLNWLDSQPEKSVVFLCFGSLGLFSKEQVIEIAVGLEKSGQRFLWVVRNPPELEKTELDLKSLLPEGFLSRTEDKGMVVKSWAPQVPVLNHKAVGGFVTHCGWNSILEAVCAGVPMVAWPLYAEQRFNRVMIVDEIKIAISMNESETGFVSSTEVEKRVQEIIGECPVRERTMAMKNAAELALTETGSSHTALTTLLQSWSPK
B4: UGT71B1: Arabidopsis recombinant glycosyltransferase (protein, UniProt Q9LSY9 1-473, looked up)
UDP-glycosyltransferase 71B1: MKVELVFIPSPGVGHIRATTALAKLLVASDNRLSVTLIVIPSRVSDDASSSVYTNSEDRLRYILLPARDQTTDLVSYIDSQKPQVRAVVSKVAGDVSTRSDSRLAGIVVDMFCTSMIDIADEFNLSAYIFYTSNASYLGLQFHVQSLYDEKELDVSEFKDTEMKFDVPTLTQPFPAKCLPSVMLNKKWFPYVLGRARSFRATKGILVNSVADMEPQALSFFSGGNGNTNIPPVYAVGPIMDLESSGDEEKRKEILHWLKEQPTKSVVFLCFGSMGGFSEEQAREIAVALERSGHRFLWSLRRASPVGNKSNPPPGEFTNLEEILPKGFLDRTVEIGKIISWAPQVDVLNSPAIGAFVTHCGWNSILESLWFGVPMAAWPIYAEQQFNAFHMVDELGLAAEVKKEYRRDFLVEEPEIVTADEIERGIKCAMEQDSKMRKRVMEMKDKLHVALVDGGSSNCALKKFVQDVVDNVP
B5: UGT71D1: Arabidopsis recombinant glycosyltransferase (protein, UniProt O82383 1-467, looked up)
UDP-glycosyltransferase 71D1: MRNVELIFIPTPTVGHLVPFLEFARRLIEQDDRIRITILLMKLQGQSHLDTYVKSIASSQPFVRFIDVPELEEKPTLGSTQSVEAYVYDVIERNIPLVRNIVMDILTSLALDGVKVKGLVVDFFCLPMIDVAKDISLPFYVFLTTNSGFLAMMQYLADRHSRDTSVFVRNSEEMLSIPGFVNPVPANVLPSALFVEDGYDAYVKLAILFTKANGILVNSSFDIEPYSVNHFLQEQNYPSVYAVGPIFDLKAQPHPEQDLTRRDELMKWLDDQPEASVVFLCFGSMARLRGSLVKEIAHGLELCQYRFLWSLRKEEVTKDDLPEGFLDRVDGRGMICGWSPQVEILAHKAVGGFVSHCGWNSIVESLWFGVPIVTWPMYAEQQLNAFLMVKELKLAVELKLDYRVHSDEIVNANEIETAIRYVMDTDNNVVRKRVMDISQMIQRATKNGGSSFAAIEKFIYDVIGIKP
B6: UGT73C6: Arabidopsis recombinant glycosyltransferase (protein, UniProt Q9ZQ95 1-495, looked up)
UDP-glycosyltransferase 73C6: MAFEKNNEPFPLHFVLFPFMAQGHMIPMVDIARLLAQRGVLITIVTTPHNAARFKNVLNRAIESGLPINLVQVKFPYQEAGLQEGQENMDLLTTMEQITSFFKAVNLLKEPVQNLIEEMSPRPSCLISDMCLSYTSEIAKKFKIPKILFHGMGCFCLLCVNVLRKNREILDNLKSDKEYFIVPYFPDRVEFTRPQVPVETYVPAGWKEILEDMVEADKTSYGVIVNSFQELEPAYAKDFKEARSGKAWTIGPVSLCNKVGVDKAERGNKSDIDQDECLEWLDSKEPGSVLYVCLGSICNLPLSQLLELGLGLEESQRPFIWVIRGWEKYKELVEWFSESGFEDRIQDRGLLIKGWSPQMLILSHPSVGGFLTHCGWNSTLEGITAGLPMLTWPLFADQFCNEKLVVQILKVGVSAEVKEVMKWGEEEKIGVLVDKEGVKKAVEELMGESDDAKERRRRAKELGESAHKAVEEGGSSHSNITFLLQDIMQLAQSNN
B7: UGT74F1: Arabidopsis recombinant glycosyltransferase (protein, UniProt O22820 1-449, looked up)
Flavonol …: MEKMRGHVLAVPFPSQGHITPIRQFCKRLHSKGFKTTHTLTTFIFNTIHLDPSSPISIATISDGYDQGGFSSAGSVPEYLQNFKTFGSKTVADIIRKHQSTDNPITCIVYDSFMPWALDLAMDFGLAAAPFFTQSCAVNYINYLSYINNGSLTLPIKDLPLLELQDLPTFVTPTGSHLAYFEMVLQQFTNFDKADFVLVNSFHDLDLHEEELLSKVCPVLTIGPTVPSMYLDQQIKSDNDYDLNLFDLKEAALCTDWLDKRPEGSVVYIAFGSMAKLSSEQMEEIASAISNFSYLWVVRASEESKLPPGFLETVDKDKSLVLKWSPQLQVLSNKAIGCFMTHCGWNSTMEGLSLGVPMVAMPQWTDQPMNAKYIQDVWKVGVRVKAEKESGICKREEIEFSIKEVMEGEKSKEMKENAGKWRDLAVKSLSEGGSTDININEFVSKIQIK

Experiment: UGT enzyme reaction with quercetin (recombinant UGTs, HPLC)
Format: biochemical, Arabidopsis
Conditions: low substrate concentration; time parameter varied
Outline: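 Recombinant Arabidopsis UGTs (2 μg) incubated with 0.5 mM quercetin and 5 mM UDP-glucose in 100 mM Tris-HCl pH 7.0 at 30 °C for 1 h. Quercetin glucosides separated from aglycone by reverse-phase C18 HPLC (acetonitrile gradient, 0.1% TFA), detected at 370 nm.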
In the case of B1, the “di-O-glucoside formation from quercetin” value is reported as “significant levels of di-O-glucosides”.

Same assay, conditions: quercetin glucosylated at 3-OH; 0.5 mM quercetin, 5 mM UDP-glucose, 30° C.
With B2 the “Specific activity (nkat/mg protein) 3-O-glc” value was 11.58 nkat/mg protein.
For B1, the “Specific activity (nkat/mg protein) 3-O-glc” value was “— (Activity lower than 0.02 nkat/mg protein has been considered as trace activity and is not shown in the Table.)”.
With B3 the “Specific activity (nkat/mg protein) 3-O-glc” value was 0.41 nkat/mg protein.
In the case of B4, the “Specific activity (nkat/mg protein) 3-O-glc” value is reported as 1.85 nkat/mg protein.
With B5 the “Specific activity (nkat/mg protein) 3-O-glc” value was 4.19 nkat/mg protein.
With B6 the “Specific activity (nkat/mg protein) 3-O-glc” value was 0.11 nkat/mg protein.

Same assay, conditions: quercetin glucosylated at 3′-OH; 0.5 mM quercetin, 5 mM UDP-glucose, 30° C.
With B2 the “Specific activity (nkat/mg protein) 3′-O-glc” value was “— (Activity lower than 0.02 nkat/mg protein has been considered as trace activity and is not shown in the Table.)”.
With B1 the “Specific activity (nkat/mg protein) 3′-O-glc” value was 1.19 nkat/mg protein.
For B3, the “Specific activity (nkat/mg protein) 3′-O-glc” value was 0.19 nkat/mg protein.
In the case of B4, the “Specific activity (nkat/mg protein) 3′-O-glc” value is reported as “— (Activity lower than 0.02 nkat/mg protein has been considered as trace activity and is not shown in the Table.)”.
In the case of B5, the “Specific activity (nkat/mg protein) 3′-O-glc” value is reported as “— (Activity lower than 0.02 nkat/mg protein has been considered as trace activity and is not shown in the Table.)”.
For B6, the “Specific activity (nkat/mg protein) 3′-O-glc” value was “— (Activity lower than 0.02 nkat/mg protein has been considered as trace activity and is not shown in the Table.)”.

Same assay, conditions: quercetin glucosylated at 4′-OH; 0.5 mM quercetin, 5 mM UDP-glucose, 30° C.
With B2 the “Specific activity (nkat/mg protein) 4′-O-glc” value was “— (Activity lower than 0.02 nkat/mg protein has been considered as trace activity and is not shown in the Table.)”.
With B1 the “Specific activity (nkat/mg protein) 4′-O-glc” value was “— (Activity lower than 0.02 nkat/mg protein has been considered as trace activity and is not shown in the Table.)”.
For B3, the “Specific activity (nkat/mg protein) 4′-O-glc” value was 0.76 nkat/mg protein.
With B4 the “Specific activity (nkat/mg protein) 4′-O-glc” value was “— (Activity lower than 0.02 nkat/mg protein has been considered as trace activity and is not shown in the Table.)”.
For B5, the “Specific activity (nkat/mg protein) 4′-O-glc” value was “— (Activity lower than 0.02 nkat/mg protein has been considered as trace activity and is not shown in the Table.)”.
For B6, the “Specific activity (nkat/mg protein) 4′-O-glc” value was 0.16 nkat/mg protein.

Same assay, conditions: quercetin glucosylated at 7-OH; 0.5 mM quercetin, 5 mM UDP-glucose, 30° C.
With B2 the “Specific activity (nkat/mg protein) 7-O-glc” value was “— (Activity lower than 0.02 nkat/mg protein has been considered as trace activity and is not shown in the Table.)”.
For B1, the “Specific activity (nkat/mg protein) 7-O-glc” value was 0.85 nkat/mg protein.
For B3, the “Specific activity (nkat/mg protein) 7-O-glc” value was 0.19 nkat/mg protein.
With B4 the “Specific activity (nkat/mg protein) 7-O-glc” value was “— (Activity lower than 0.02 nkat/mg protein has been considered as trace activity and is not shown in the Table.)”.
For B5, the “Specific activity (nkat/mg protein) 7-O-glc” value was “— (Activity lower than 0.02 nkat/mg protein has been considered as trace activity and is not shown in the Table.)”.
In the case of B6, the “Specific activity (nkat/mg protein) 7-O-glc” value is reported as 0.14 nkat/mg protein.

Experiment: Whole-cell biocatalyst assay, E. coli expressing UGT in culture medium
Format: cell-based
Conditions: E. coli, 2x YT medium, 0.1 mM IPTG, 0.1 mM quercetin, 24 h
Description: FIG. 14 Whole-cell biocatalyst assay using UGT71C1. E. coli cells expressing recombinant were used in the biocatalyst assay. After incubation with 0.1 mM quercetin and 0.1 mM IPTG, cells were collected by centrifugation, extracted with 80% methanol and both the cell extracts (pellet) and culture medium (supernatant) were analysed using HPLC. (A) Changes in the combined amounts of aglycone/glucoside over a time-course of 0-48 h. (B) Changes in the level of different glucosides and aglycone in the culture medium over the same time-course.
Using the foundation established in the preceding example, we went on to investigate the potential of E. coli expressing plant UGTs as whole-cell biocatalysts to synthesise glucosides of quercetin. In the first instance, we used E. coli grown in 75 ml of standard culture medium. […] Table 2 describes results in which 7 different UGTs are expressed in E. coli and the identity and quantity of different glucosides recovered in the medium were analysed by HPLC. […] There was considerable variation in the level of different glucosides synthesised by the cells, although even under these non-optimised conditions, each of the four monoglucosides and two di-O-glucosides could be formed.
For B1, the “Culture medium (μg/ml in supernatant) 3′-O-glc” value was 8.00 µg/mL, the “Culture medium (μg/ml in supernatant) 7,3′-di-O-glc” value was 10.90 µg/mL and the “Culture medium (μg/ml in supernatant) 7-O-glc” value was 2.12 µg/mL.
In the case of B7, the “Culture medium (μg/ml in supernatant) 4′-O-glc” value is reported as 0.19 µg/mL and the “Culture medium (μg/ml in supernatant) 7-O-glc” value is reported as 0.53 µg/mL.

Same assay, conditions: within 6 h; E. coli in 75 ml standard culture medium, no supplementary UDP-glucose
In the case of B1, the “aglycone converted to glucosides” value is reported as about 50%.
